Results taken from the supplement of paper PMC9170038.

Tested on: MS2 coat protein
Test: apparent KD of MS2 coat protein; designed switch direction (-1 OFF switch, 1 ON switch): 1; higher = weaker reporter binding
In short: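 Designed RNA switches with common flanks were transcribed on Illumina chips by stalled E. coli RNA polymerase and titrated with SNAP-549-labelled MS2 coat protein, from 0.7 or 1.5 nM doubling to 3 µM, in Tris-HCl pH 7.5 buffer with KCl, MgCl2, BSA, DTT, tRNA and Tween-20. Steps lasted 0.8–1.5 h (lowest) to 10–20 min (highest). Titrations ran without input, with 200 uM small-molecule ligand, or with an oligonucleotide input. Normalised cluster fluorescence was curve-fitted, and apparent KD is the per-design median over clusters.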

[1] = input ligand: microRNA oligo, concentration not stated
[2] = Eterna round: R95, input ligand: FMN 200 uM
[3] = Eterna round: R95, input ligand: microRNA oligo, concentration not stated
[4] = Eterna round: R95, input ligand: none

AAAACAUGACGAGGAUAUGGAACAUGAGGAUCACCCAUGUAUGUUCCAUAACGCGAAUGACGAAUCCAGAAGGCGUCGUGAAAA [Mat - Same State NG 2 - JL mod - D27] (Eterna round: R96, puzzle: Same State NG 2)
apparent KD of MS2 coat protein (input ligand: FMN 200 uM): 25.1 nM
apparent KD of MS2 coat protein [1]: 181 nM
apparent KD of MS2 coat protein (input ligand: none): 272 nM

AAAAGAAACACAGGAUAUACCGCAAUUAACACGGUAGAAGGGUGGGACAUGAGGAUCACCCAUGUGACCUGAACACCAGGUCGC [Enrien] (Eterna round: R96, puzzle: Same State NG 1)
apparent KD of MS2 coat protein (input ligand: FMN 200 uM): 369 nM
apparent KD of MS2 coat protein [1]: 17.9 nM
apparent KD of MS2 coat protein (input ligand: none): 105 nM

AAAAGAAACAUGUACCUGAGUACAUGAAAACAUGAGGAUCACCCAUGUAAUAAGUGGGUGUUUUGUCUUUGUCUUAU [JL pocket 34, mod 5] (Eterna round: R96, puzzle: Sensor for hsa-mir-208a)
apparent KD of MS2 coat protein (input ligand: FMN 200 uM): 50.8 nM
apparent KD of MS2 coat protein [1]: 119 nM
apparent KD of MS2 coat protein (input ligand: none): 51.8 nM

AAAAGAAGAAUGUAGGAUAUACAAAAGAACACAUGAGGAUCACCCAUGUGAGCCUAAUGUAAGAAGUAGAAGGACAAAGAGAAAA [Default title] (puzzle: Same State 2)
apparent KD of MS2 coat protein [2]: 91.3 nM
apparent KD of MS2 coat protein [3]: 62 nM
apparent KD of MS2 coat protein [4]: 67.3 nM

AAAAGACAAAGAAAACAUGAGGAUCACCCAUGUGGCGUGACACAGGAUAUCCACGCUACAUUGCAGGAGAAGGGUGACAUGCAC [Ensora] (Eterna round: R96, puzzle: Same State NG 3)
apparent KD of MS2 coat protein (input ligand: FMN 200 uM): 484 nM
apparent KD of MS2 coat protein [1]: 273 nM
apparent KD of MS2 coat protein (input ligand: none): 383 nM

AAAAUAAAUGCGAAAAUUAACCGCAACUGACAUGAGGAUCACCCAUGUGCUUCAAGCUCAGGCAUCUCUUAUCGUCA [Maares] (Eterna round: R96, puzzle: Sensor for hsa-mir-208a)
apparent KD of MS2 coat protein (input ligand: FMN 200 uM): 112 nM
apparent KD of MS2 coat protein [1]: 67.9 nM
apparent KD of MS2 coat protein (input ligand: none): 105 nM

AAAAUACAUGAGGAUCACCCAUGUCUAAAGAACGGAGGAUAUAGGCGUGCAAAACACGCACUAGAAGGCUGGGUGC [Eserus] (puzzle: Same State 1)
apparent KD of MS2 coat protein [2]: 144 nM
apparent KD of MS2 coat protein [3]: 92.3 nM
apparent KD of MS2 coat protein [4]: 220 nM

AAAAUGGUAUGUUACAUGAGGAUCACCCAUGUACCGUAAUCUGAGGAUAUGGUGAUGUAGAAGAAUCAGAAGGCAGACAUUUAA [AK SSNG3-V2-24.2] (Eterna round: R96, puzzle: Same State NG 3)
apparent KD of MS2 coat protein (input ligand: FMN 200 uM): 19.2 nM
apparent KD of MS2 coat protein [1]: 26.7 nM
apparent KD of MS2 coat protein (input ligand: none): 36.1 nM

AAACACAUGAGGAUCACCCAUGUAGCGCCAUUAAAGCGCACAUAGGAUAUCCGGUCCUAAAGACCGGAGAAGGGUGAAAGAAAA [Zara] (Eterna round: R96, puzzle: Same State NG 3)
apparent KD of MS2 coat protein (input ligand: FMN 200 uM): 54.8 nM
apparent KD of MS2 coat protein [1]: 76.2 nM
apparent KD of MS2 coat protein (input ligand: none): 121 nM

AAACAUGAGCGAGGAUAUACGGAGGAUCACCCUGUAGAAGGCGCAUGUAAAACAACAUGAGGAUCACCCAUGUCAUGUACAUGA (Eterna round: R96, puzzle: Same State NG 1)
apparent KD of MS2 coat protein (input ligand: FMN 200 uM): 24.8 nM
apparent KD of MS2 coat protein [1]: 23.4 nM
apparent KD of MS2 coat protein (input ligand: none): 33.6 nM

AAACGCAGCAUAUCGCUGCGACAUGAGGAUCACCCAUGUACACAGGAUAUCGCGGCAUACCGCCACGAGAAGGGUGAUCAAGAC [Vebixeriso] (Eterna round: R96, puzzle: Same State NG 3)
apparent KD of MS2 coat protein (input ligand: FMN 200 uM): 676 nM
apparent KD of MS2 coat protein [1]: 82.9 nM
apparent KD of MS2 coat protein (input ligand: none): 45.2 nM

AAACGGUCGCUGCGGCGGCCACAUGAGGAUCACCCAUGUACAUAGGAUAUCGCCUAAAAUACUGGCGAGAAGGGUGAUUAAAGA [Ergegeti] (Eterna round: R96, puzzle: Same State NG 3)
apparent KD of MS2 coat protein (input ligand: FMN 200 uM): 132 nM
apparent KD of MS2 coat protein [1]: 36.2 nM
apparent KD of MS2 coat protein (input ligand: none): 79.4 nM

AAACUAGGCGGUCCAACAUGAGGAUCACCCAUGUAAAAUUCAUAGGAUAUGCCUAUAGAAACAAGGCAGAAGGGUGAGACCGCA [Atsoorle] (Eterna round: R96, puzzle: Same State NG 3)
apparent KD of MS2 coat protein (input ligand: FMN 200 uM): 68.6 nM
apparent KD of MS2 coat protein [1]: 93.7 nM
apparent KD of MS2 coat protein (input ligand: none): 134 nM

AAAGGAUGAUGUUACAUGAGGAUCACCCAUGUUGUGAUAACUAAGGAUAUGUGUUAAACCAGUUAAUAGAAGGUAGGAUCAUAA [AK SSNG3-V2-5] (Eterna round: R96, puzzle: Same State NG 3)
apparent KD of MS2 coat protein (input ligand: FMN 200 uM): 182 nM
apparent KD of MS2 coat protein [1]: 77.1 nM
apparent KD of MS2 coat protein (input ligand: none): 112 nM

AACAAUCUAUCUCAGGAUAUCAUGUCAAAGACAUGAGGAUCACCCAUGUACCAGGAAACUGGUUAUGAGAAGGGAGAUAGAUUGG [Mat - Same State 2 - Mod - D28] (puzzle: Same State 2)
apparent KD of MS2 coat protein [2]: 161 nM
apparent KD of MS2 coat protein [3]: 438 nM
apparent KD of MS2 coat protein [4]: 197 nM
